Data on five molecules can be found in patent publication US7576101B2, “Composition for and treatment of demyelinating diseases and paralysis by administration of remyelinating agents” (Elan Pharmaceuticals, Inc., priority 2003, dated 2009).

Assay [1] concerns the target human α4β1 integrin (human) (UniProt P13612). The experiment in a line: cell-based or functional assay.
Assay [2] has as its target rat α4 integrin on rat lymphocytes (rat). The experiment in a line: cell-based or functional assay.
Assay [3] concerns the target VLA-4 (Homo sapiens, UniProt P13612). Conditions: cited from earlier work.
Assay [4] relates to human lymphocyte binding to rat brain cells. Conditions: cited from earlier work.

In assay [1], HP2/1 (antibody) displayed a % Input Binding Jurkat, TNFα-stimulated rat brain EC clone of 6 % input; a % Input Binding Ramos, TNFα-stimulated rat brain EC clone of 2 % input; a % Input Binding U937 to VCAM-1 transfected L cells of 3 % input; a % inhibition of Jurkat binding to FN-coated plate of 47 % inhibition. In addition, in assay [1], the % input bound, Jurkat cells on FN-coated plate (% input bound) is 42; the % input cells bound, U937 on TNFα-stimulated primary rat brain EC (% input cells bound) was found to be 13; the Binding of U937 cells to inflamed vessels in sections of EAE brain was determined as 3; the Relative Binding to EAE Vessels (% of Control), human lymphocytes is 1 % of Control. In assay [1], the Relative Binding to EAE Vessels (% of control), U937 cells is 3 % of control and the Relative Binding to EAE Vessels (% of control), U937 cells, tested at 25° C. was 5 % of control. Also, in assay [2], the Relative Binding to EAE Vessels (% of Control), rat lymphocytes is 18 % of Control.
Regarding HP1/7 (antibody), in assay [1], the Relative Binding to EAE Vessels (% of control), U937 cells was 338 % of control.
Take AIIB2 (antibody): in assay [1], the Relative Binding to EAE Vessels (% of Control), human lymphocytes was 7 % of Control and the Relative Binding to EAE Vessels (% of control), U937 cells is 8 % of control.
Turning to P4G9 (antibody), the Relative Binding to EAE Vessels (% of control), U937 cells in assay [1] is 151 % of control.

B1: mu MAb 21.6: mouse monoclonal antibody specific for the alpha-4 subunit of VLA-4; donor immunoglobulin for humanization (antibody, V domains shown)
VH: EVQLQQSGAELVKPGASVKLSCTASGFNIKDTYIHCVKQRPEQGLEWIGRIDPANGYTKYDPKFQGKATITADTSSNTAYLQLSSLTSEDTAVYFCAREGYYGNYGVYAMDYWGQGTSVTVSSAK
VL: DIQMTQSPSSLSASLGGKVTITCKTSQDINKYMAWYQHKPGKRPRLLIHYTSALQPGIPSRFSGSGSGRDYSFNISNLEPEDIATYYCLQYDNLWTFGGGTKLEIK
B1: in assay [3], the “binding affinity for VLA-4” value is on record as “about 10^9 M^−1”. In assay [4], the “human lymphocyte binding to tissue cultures of rat brain cells stimulated with tumor necrosis factor” value is on record as “inhibit”.
